The values below come from article PMC7995614, “Arabidopsis thaliana 3-mercaptopyruvate sulfurtransferases interact with and are protected by reducing systems” (The Journal of Biological Chemistry, 2021).

The target of one data set is Cys298 (UniProt position 298, PIAASCGTGVT). In words: chemical modification (H2O2 inactivation) with activity readout. The following applies: Not stated for the pH pre-incubation. The activity assay was at 25 °C.; Not stated (100 mM buffers); 100 mM sodium citrate, MES, phosphate or borate buffers for the pre-incubation. Activity assay in 30 mM Tris-HCl pH 8.0.; Reduced enzyme (DTT-reduced and desalted), 2 uM, no substrate during the 3 min pre-incubation.

In another data set the test system is Cys. The following applies: cited from earlier work.
A further data set has as its target Cys333 (UniProt position 333, PIMASCGTGVT). In words: chemical modification (H2O2 inactivation) with activity readout. Particulars: Not stated for the pH pre-incubation. The activity assay was at 25 °C.; Not stated (100 mM buffers); 100 mM sodium citrate, MES, phosphate or borate buffers for the pre-incubation. Activity assay in 30 mM Tris-HCl pH 8.0.; Reduced enzyme (DTT-reduced and desalted), 2 uM, no substrate during the 3 min pre-incubation.

Data set [1] addresses T1, STR2 (Arabidopsis thaliana, UniProt Q24JL3).
T1 construct: untagged, pET12a; E. coli BL21(DE3)
T1 sequence (Q24JL3 1-342 limits assumed): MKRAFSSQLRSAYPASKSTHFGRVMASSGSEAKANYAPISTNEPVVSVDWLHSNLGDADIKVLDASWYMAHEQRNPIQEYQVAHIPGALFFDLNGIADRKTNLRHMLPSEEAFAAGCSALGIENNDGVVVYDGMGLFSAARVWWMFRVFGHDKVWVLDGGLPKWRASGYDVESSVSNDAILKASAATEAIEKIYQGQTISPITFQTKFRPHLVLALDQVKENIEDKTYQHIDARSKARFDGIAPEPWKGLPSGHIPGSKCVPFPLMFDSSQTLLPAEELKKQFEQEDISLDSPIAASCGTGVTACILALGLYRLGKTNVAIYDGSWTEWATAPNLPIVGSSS
In words: intrinsic tryptophan fluorescence quenching. It counts as binding.

The target of data set [2] is T2, STR1 (Arabidopsis thaliana, UniProt O64530).
T2 construct: untagged (pET28a) or C-terminal His tag (used for Cys variants); E. coli BL21(DE3)
T2 sequence (O64530 57-379): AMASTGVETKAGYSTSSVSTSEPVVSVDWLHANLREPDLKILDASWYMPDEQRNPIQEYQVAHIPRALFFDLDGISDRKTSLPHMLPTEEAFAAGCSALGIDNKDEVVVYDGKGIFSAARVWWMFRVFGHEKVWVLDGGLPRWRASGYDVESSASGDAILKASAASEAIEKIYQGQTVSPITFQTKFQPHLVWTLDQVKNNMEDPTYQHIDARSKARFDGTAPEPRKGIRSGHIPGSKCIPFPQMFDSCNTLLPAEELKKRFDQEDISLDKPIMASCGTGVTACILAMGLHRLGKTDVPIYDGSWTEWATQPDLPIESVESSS
Kind of data set: intrinsic tryptophan fluorescence quenching. The format is binding.

For data set [3], the target named is T3, STR2 (Arabidopsis thaliana, UniProt Q24JL3, C298S).
T3 construct: untagged, pET12a; E. coli BL21(DE3)
T3 sequence (Q24JL3 1-342 C298S limits assumed): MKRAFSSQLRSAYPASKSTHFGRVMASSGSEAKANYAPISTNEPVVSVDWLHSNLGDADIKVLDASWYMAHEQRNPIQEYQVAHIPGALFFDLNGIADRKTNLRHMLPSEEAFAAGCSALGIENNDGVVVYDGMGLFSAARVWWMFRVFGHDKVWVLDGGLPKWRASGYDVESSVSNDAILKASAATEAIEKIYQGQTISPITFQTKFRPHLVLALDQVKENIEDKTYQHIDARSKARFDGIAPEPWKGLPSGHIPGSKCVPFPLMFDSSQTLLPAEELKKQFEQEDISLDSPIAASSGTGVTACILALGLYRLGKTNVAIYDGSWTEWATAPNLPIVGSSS
Kind of data set: intrinsic tryptophan fluorescence quenching. The format is binding. Particulars: 2 μM protein, 100-fold excess 3-MP, pH 8.0; catalytic Cys variant.

Data set [4] concerns the target T4, STR1 (Arabidopsis thaliana, UniProt O64530, C333S).
T4 construct: untagged (pET28a) or C-terminal His tag (used for Cys variants); E. coli BL21(DE3)
T4 sequence (O64530 57-379 C333S): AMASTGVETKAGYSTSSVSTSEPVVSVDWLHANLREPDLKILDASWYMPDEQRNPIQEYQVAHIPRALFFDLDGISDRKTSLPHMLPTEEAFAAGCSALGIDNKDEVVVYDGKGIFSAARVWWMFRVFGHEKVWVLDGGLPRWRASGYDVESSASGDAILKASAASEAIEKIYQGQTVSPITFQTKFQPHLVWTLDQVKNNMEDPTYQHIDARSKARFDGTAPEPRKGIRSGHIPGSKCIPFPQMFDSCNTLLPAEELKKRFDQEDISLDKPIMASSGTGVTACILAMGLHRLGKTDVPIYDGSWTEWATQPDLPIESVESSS
Kind of data set: intrinsic tryptophan fluorescence quenching. The following applies: 2 μM protein, 100-fold excess 3-MP, pH 8.0; catalytic Cys variant. The format is binding.

Substrate in data set [5]: N[C@@H](CS)C(=O)O
Kind of data set: H2S release, methylene blue assay. It counts as biochemical, Arabidopsis thaliana. The following applies: apparent, sulfur acceptor, 250 μM 3-MP, pH 8.0, 25 °C. An excerpt:
(§1) H2S release, methylene blue assay on STR1

Substrate in data set [6]: O=C(O)C(=O)CS
In words: H2S release, methylene blue assay. It counts as biochemical, Arabidopsis thaliana. The following applies: apparent, sulfur donor, acceptor 30 μM TRXo1 with NADPH and NTRB, pH 8.0, 25 °C.
Excerpt: as §1

Substrate in data set [7]: N[C@@H](CS)C(=O)O
Kind of data set: H2S release, methylene blue assay. It counts as biochemical, Arabidopsis thaliana. The following applies: apparent, sulfur acceptor, 250 μM 3-MP, pH 8.0, 25 °C. From the text: (§2) H2S release, methylene blue assay on STR2
The source holds these as a separate data set.

Substrate in data set [8]: O=C(O)C(=O)CS
Kind of data set: H2S release, methylene blue assay. The format is biochemical, Arabidopsis thaliana. The following applies: apparent, sulfur donor, acceptor 10 μM TRXh1 with NADPH and NTRB, pH 8.0, 25 °C.
Excerpt: as §2

In general, pKa refers to the pH at which an ionisable group is half protonated. Turning to “Sulfurtransferase 2 (STR2), cytosolic 3-mercaptopyruvate sulfurtransferase (Arabidopsis thaliana)”, in the data set with Cys298, the pKa turned out to be 4.0 ± 0.1.
Turning to “3-mercaptopyruvate sulfurtransferase (human MST) (Homo sapiens)”, in the data set on Cys, the pKa is listed as 5.2 ± 0.1.
For the molecule “Sulfurtransferase 1 (STR1), mitochondrial 3-mercaptopyruvate sulfurtransferase (Arabidopsis thaliana)”, in the data set with Cys333, the pKa is 3.8 ± 0.1.
What is called Kd is the equilibrium constant for the complex coming apart. Low values mean a tighter complex, high ones a looser complex. As to `O=C(O)C(=O)CS` [3-MP], the Kd worked out at 700 ± 300 nM at STR2 [1] and 1300 ± 900 nM at STR1 [2]. Besides, the “intrinsic tryptophan fluorescence quenching” value at STR2 [3] and on STR1 [4] was “intrinsic fluorescence of both variants also decreased after addition of 3-MP” throughout.

B1: STR1 (Arabidopsis thaliana) (protein)
chain: AMASTGVETKAGYSTSSVSTSEPVVSVDWLHANLREPDLKILDASWYMPDEQRNPIQEYQVAHIPRALFFDLDGISDRKTSLPHMLPTEEAFAAGCSALGIDNKDEVVVYDGKGIFSAARVWWMFRVFGHEKVWVLDGGLPRWRASGYDVESSASGDAILKASAASEAIEKIYQGQTVSPITFQTKFQPHLVWTLDQVKNNMEDPTYQHIDARSKARFDGTAPEPRKGIRSGHIPGSKCIPFPQMFDSCNTLLPAEELKKRFDQEDISLDKPIMASCGTGVTACILAMGLHRLGKTDVPIYDGSWTEWATQPDLPIESVESSS
notes: untagged (pET28a) or C-terminal His tag (used for Cys variants); E. coli BL21(DE3)
A word on the Km: it is the substrate concentration at which the rate is half of its maximum. Broadly, the kcat is the maximal rate divided by the concentration of active sites. As a reminder, the kcat/Km is the second-order rate constant that governs catalysis at low substrate concentration. Turning to B1, in data set [5], the Km came to 2200 ± 400 µM, the kcat stood at 3.9 s⁻¹ and the kcat/Km was determined as 1700 M⁻¹ s⁻¹. Also, in data set [6], the Km is 286 ± 5 µM, the kcat was determined as 13.5 s⁻¹ and the kcat/Km stood at 47000 M⁻¹ s⁻¹.

B2: STR2 (Arabidopsis thaliana) (protein)
chain: MKRAFSSQLRSAYPASKSTHFGRVMASSGSEAKANYAPISTNEPVVSVDWLHSNLGDADIKVLDASWYMAHEQRNPIQEYQVAHIPGALFFDLNGIADRKTNLRHMLPSEEAFAAGCSALGIENNDGVVVYDGMGLFSAARVWWMFRVFGHDKVWVLDGGLPKWRASGYDVESSVSNDAILKASAATEAIEKIYQGQTISPITFQTKFRPHLVLALDQVKENIEDKTYQHIDARSKARFDGIAPEPWKGLPSGHIPGSKCVPFPLMFDSSQTLLPAEELKKQFEQEDISLDSPIAASCGTGVTACILALGLYRLGKTNVAIYDGSWTEWATAPNLPIVGSSS
notes: untagged, pET12a; E. coli BL21(DE3)
With B2, in [7], the Km came out at 1300 ± 70 µM and the kcat was determined as 1.5 s⁻¹. Also, in data set [8], the Km came to 377 ± 15 µM and the kcat was found to be 9.7 s⁻¹.
